Among the data in patent publication US20160376333A1 (University of Washington, published 2016) are Log2 enrichment ratio values, retold here.

The target of assay [1] is T1, Epstein-Barr virus BHRF1 a.a. 1-161 with C-terminal avi-6his tag (Epstein-Barr virus).
T1 construct: also called EBV BHRF1; BHRF1-biotin
T1 chain: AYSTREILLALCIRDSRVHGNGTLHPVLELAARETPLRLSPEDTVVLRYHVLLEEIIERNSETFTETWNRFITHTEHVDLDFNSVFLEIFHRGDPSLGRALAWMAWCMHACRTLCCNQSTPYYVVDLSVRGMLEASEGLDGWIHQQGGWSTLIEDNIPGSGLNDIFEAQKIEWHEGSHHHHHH
As to the kind of experiment: yeast display library, FACS sort at 100 nM BHRF1, deep sequencing.

For assay [2], the target named is T1, Epstein-Barr virus BHRF1 a.a. 1-161 …. As to the kind of experiment: yeast display library, FACS sort at 400 nM BHRF1, deep sequencing.

B1: Index 09 (designed binder)
chain: GKEAKKRIQEALEEAKRKAEKLLREHEKKKKEHLLGDKRDREKTEETDKWIAEALMLIGDIFNLYMKFEWEKEREKKLGLLREEEEKEVEDEAKDAYLKALKLAYLVSKKGHEVAELG
For the molecule B1, the Log2 enrichment ratio is -2.55 log2 in assay [1] and -2.05 log2 in assay [2].

B2: Index 34 (designed binder)
chain: GKFKKLFENYAELFARWVADKGKKLAEELREKAEKGLKLQKLWLIFTMIWIAIMLMSIGDAFNLALLAELWVQAAKNYGWLRDNEADEAEDRVRKFADEASRRALEKGLEALRKILEG
Turning to B2, the Log2 enrichment ratio is -3.41 log2 in assay [1] and -2.21 log2 in assay [2].

B3: Index 29 (designed binder)
chain: GEVAKDLAKLAIDLAKKLMLLFWWFFELFKLFAKFTDEWQEWKARGTAFWIALSLAAIGDFFNARRRAELQAREGKQKGLTTEEKEKRWREHLKEAWEKLEKISRLAFLFAQEAENQG
Turning to B3, the Log2 enrichment ratio in assay [1] was -1.66 log2; in assay [2] it was -2.43 log2.

B4: Index 31 (designed binder)
chain: GDQADKIKDKIKDEAKKKADEFKKRLEQFREYLEKVYSDDLKEIYLTIFWIALALMLIGDAFNEKMLLEWEFKERKKRNLRHEEELKEEKKKREEAEKALEWASKYASQVGKEAAEEG
As to B4, the Log2 enrichment ratio in assay [1] was -3.55 log2; in assay [2] it was -4.21 log2.

B5: Index 27 (designed binder)
chain: GLDGDYLMDEAFKFIERERERAEEEAKKMYELAEKGKYYEERKTKATKFWIALALEMIGDFFNFEMWFRKYAEKNRENNQRREDLLRRWELLLRFQAWDAAERARELGKRLELWFKKG
As to B5, the Log2 enrichment ratio in assay [1] was -0.72 log2; in assay [2], 0.86 log2.

B6: Index 28 (designed binder)
chain: GKEGSRLREEAERRGLRKLLEVILRWLEDALRMIYGQDKDEDRKEATHRWIADALELIGDIFNALLEAFIKMELARRFGLLEEQRARDEKKKALERAEEFSKRARELGEKLTQILEGG
For B6, the values for the Log2 enrichment ratio in assay [1] and in assay [2] were -4.52 log2 and -2.85 log2, respectively.

B7: Index 26 (designed binder)
chain: GRFAERLFKKMLIKQLLNTQYFRDQLKQLKDRSKKYDASDDDKDEATHRWIAFALMAIGDVFNDKLEIELLIELFAKYGLVHEEERKEFRKRLDEFEKIFRKWLDELKKLALEALNQG
In the case of B7, the Log2 enrichment ratio in assay [1] was -2.74 log2; in assay [2] it was -2 log2.

B8: Index 07 (designed binder)
chain: GEEFKKKLKKWEEWLLKATNEAENQARNMWQKAEQTDLEDQQRIRAVDFWIAIALMAIGDKFNADQEGDEEFEKYKKKGRASEDKIKEAKDERDRAKKRWEQFVKEAGERAFRGEQLG
B8: the figures for the Log2 enrichment ratio in assay [1] and in assay [2] were -2.79 log2 and -1.16 log2, respectively.

B9: Index 11 (designed binder)
chain: GNILDEAKDEMREEMEKLWKKFKDEVEEERKEAEREEKHFQERAELTKRWIARALMAIGDMFNRFREAKEKLEKRRELGLISEEDARKALLLLEEFMRRMAEFAKKLGDDLMRDAEKG
On to B9, for which the Log2 enrichment ratio in assay [1] is -2.62 log2; in assay [2], -1.55 log2.

B10: Index 17 (designed binder)
chain: GRSAEIMREILEKQAEDDAKKIRDIAQKWKERRKRYDPRDEEREEEVEKWIAFALMAIGDIFNLARWALLQARWERRWNLSHEDEGKNHEENVKDAEDRAHWKAREAAREGAKMSWEG
In the case of B10, the Log2 enrichment ratio is -3.41 log2 in assay [1] and -2.54 log2 in assay [2].

B11: Index 10 (designed binder)
chain: GDSDDDDLKDALLRMLWAAAQAIYHSLENMERKEKFDMHFEEERRDTLQWIADALRAIGDAFNEMMRRRRELEKKRENNIISEQRARLYEEFLKRFAEWASRELAKAGKKEANKLNEG
As for B11, the Log2 enrichment ratio was -0.72 log2 in assay [1] and 0.62 log2 in assay [2].

B12: Index 35 (designed binder)
chain: GGDGVKELEELEKRKDEKKNKAEDRIKKFKDEAKYADDRTEDKEKLAHRWIALALDIIGDAFNLKEEARRRFLRHKFRGELDDSKKEYAEKEMKRFEDDVEKDAEELAQKAKEAFKEG
For the molecule B12, the Log2 enrichment ratio in assay [1] is -3.51 log2; in assay [2], -3.29 log2.

B13: Index 20 (designed binder)
chain: GLRFEEIERYAREEADKIADEAKERFEKLKKLFLWLTDKDEERLKMTHLWIAGALEAIGDLFNAAELAKELAEKAARLTSQDANRRDEARKKIDEAEKEAADKVSKAAKEAAKFFEQG
As for B13, the Log2 enrichment ratio in assay [1] is -3.87 log2; in assay [2] it was -3.65 log2.

B14: Index 23 (designed binder)
chain: GEDEEKDHKDTEEKARRLHERARDMLDKVKDLEEKTDAQDNERRRATHDWIAAALMMIGDAFNSFEDTKRRAEKKRELNLISEDEAKEKIKRAEELRKRIYELLKKAAEFAREAEKGG
In the case of B14, the Log2 enrichment ratio was -1.72 log2 in assay [1] and -0.17 log2 in assay [2].

B15: Index 13 (designed binder)
chain: GSKWEEDREKAKREAEKKLDEAKDKLDLYKDFALRFDASDELKTKWTLEWIALALEMIGDVFNYALEAKEFAEKKARNNLLLDDLKDLYKLYLALLAKEESKKAIEEGDKLREAIEKG
Turning to B15, the Log2 enrichment ratio was -3.07 log2 in assay [1] and -1.6 log2 in assay [2].

B16: Index 24 (designed binder)
chain: GELAREAAEEAHRRVEEDARDAKNRLDEFKKRYKITQLSKSDISRATALWIAAALDAIGDIFNAKQKAEKILGLWYKLGLVQLQEFLEKEDKARYHWQAALERAFEAGRDMLEVAAYG
B16: the values for the Log2 enrichment ratio in assay [1] and in assay [2] were -3.02 log2 and -2.95 log2, respectively.

B17: Index 18 (designed binder)
chain: GGTEDDIKDLAEKWRDDMKKEFLREFLRIKEWTKYWGWREEGRKLATLRWIALSLMHIGDLFNLKELAKKLVDDIKKKGLEHEERAERAREEAEKIMEKAAKLDSILSKLAAKLIEEG
With B17, the figures for the Log2 enrichment ratio in assay [1] and in assay [2] were -1.36 log2 and 0.98 log2, respectively.

B18: Index 12 (designed binder)
chain: GEDDDKVLKWALEALRKVLDEAKEKLEKLKKYTDGDGFGEDYRREFFRKWIAIALEAIGDIFNIMMEALQKADKHKKLNTHDSQKADEAKEKIKKFADEAEERAKELAKKGEAWLLKG
In the case of B18, the Log2 enrichment ratio in assay [1] is -2.56 log2; in assay [2], -1.37 log2.

B19: Index 33 (designed binder)
chain: GKQWQEAFEEARRRIEEKAREFEDRAKKEALLHLFFIPHDKEIADNSKKWIAWALMLIGDIFNLEEEAAERARRHVKRGEISEDDAKQIRKRLQEQAKRAAWWMRYWGEESAKFAFIG
B19: the Log2 enrichment ratio in assay [1] was -4.18 log2; in assay [2] it was -3.85 log2.

B20: Index 22 (designed binder)
chain: GSSAEDLRDWARDQHEKDVDKMEKRLRLLYFELARKDFNEEELKKATEKWIAAALDAIGDHFNAALKARLLARDAAKKGLIDRNKLDEVEKMAELFEELGERKAALKGREFLRWVLLG
Regarding B20, the Log2 enrichment ratio is -3.03 log2 in assay [1] and -2.4 log2 in assay [2].

B21: Index 19 (designed binder)
chain: GERVEEILRKMLDDALLHFLEHRDDARERKERGERHQPRDEEREELSHDWIAAALMAIGDIFNAKLRAEERAEEFLKWGLRSQDDKKELEERAKEAAKIALKWAEEAGKEADEAEKAG
Turning to B21, the Log2 enrichment ratio was -2.97 log2 in assay [1] and -1.98 log2 in assay [2].

B22: Index 14 (designed binder)
chain: GLSADDLFDYAEDRMREGWKDFEELAGEAEKKAKEHTLSDQERREATEKWIAAALELIGDAFNAIRWAEELGKLYVKLNLDDKQKVEELKKKLEERAKEEAQKARKRGDKLEDLADSG
B22: the results for the Log2 enrichment ratio in assay [1] and in assay [2] were -2.91 log2 and -0.65 log2, respectively.

B23: Index 25 (designed binder)
chain: GANHEDAIWEALYKAEDAFKDHLKEIEIYREFSEKFWPLDDYKDNLRAHWIAAALAAIGDWFNVFFEAELKFREAKRKNLRSEDDIKKYRWRLFKALDIAIDLADRVGDEAEKAERLG
Regarding B23, the Log2 enrichment ratio in assay [1] is -2.9 log2; in assay [2] it was -1.53 log2.

B24: Index 30 (designed binder)
chain: GSRWFDAEDKMRERKDRAILQLLFMLWIIFYILWYGDDTEEAKRKAMAAWIALALIGIGDIFNAEAEFLEELERAIKQGQVSDQLKEELLKRMEDDKRDLEKRLYEFLLKALLQWMQG
Take B24: the Log2 enrichment ratio in assay [1] was -2.58 log2; in assay [2], -4.1 log2.

B25: Index 21 (designed binder)
chain: GFDWKKVLDKAKDLAENDVREAKQKLEEFYKKAMKLDLTQEMRRKLMLEWIAAMLMAIGDIFNAIEQGKQEADKLKKLGKVLSQLLDELKRRLEELKEEAALKAHDFGREFELKLLFG
notes: also called computational precursor for BbpD04
For the molecule B25, the Log2 enrichment ratio is -3.38 log2 in assay [1] and -2.81 log2 in assay [2].

B26: Index 32 (designed binder)
chain: GGDENKLKDYVKDEIERGLNEIEDLARKIEQLARRFFPKDEERMKFTMWWIAAALMAIGDIFNAKEYARERAEEIRRKGLRREEEARRIEKFIEEEAEKAAKKAAKLGDHLAEELFRG
In the case of B26, the Log2 enrichment ratio in assay [1] is -2 log2; in assay [2], -2.56 log2.

B27: Index 08 (designed binder)
chain: GWDARRALKYVYERMREDLEYARNQIDNMEDRADQYDARTEERKEFTKRWIALALMLIGDGFNAFERAKEWIDDGKNNNQRSSDEADYAKDEALKFIFYAAFEARRKGDELDKKAEGG
With B27, the Log2 enrichment ratio was -3.06 log2 in assay [1] and -0.8 log2 in assay [2].
